This note sets out measurements from US20220204643A1 (published 2022).

The target in assay [1] is T1, proliferating cell nuclear antigen, transcript variant 1 (human, UniProt P12004 1-261).
T1 construct: HuProt array protein, full-length recombinant from yeast; also called PCNA

Assay [2] has as its target T2, ankyrin repeat domain 53, transcript variant 2 (human).
T2 construct: HuProt array protein, full-length recombinant from yeast; also called ANKRD53
T2 chain: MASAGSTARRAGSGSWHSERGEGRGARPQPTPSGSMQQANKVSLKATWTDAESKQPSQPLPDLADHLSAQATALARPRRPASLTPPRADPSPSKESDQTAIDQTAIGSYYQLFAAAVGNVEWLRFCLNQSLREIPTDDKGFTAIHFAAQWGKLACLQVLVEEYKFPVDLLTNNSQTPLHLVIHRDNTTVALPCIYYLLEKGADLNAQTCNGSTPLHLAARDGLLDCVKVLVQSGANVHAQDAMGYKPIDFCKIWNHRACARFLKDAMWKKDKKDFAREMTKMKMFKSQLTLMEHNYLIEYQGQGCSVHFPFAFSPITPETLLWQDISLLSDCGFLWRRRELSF

Assay [3] addresses T3, checkpoint kinase 2, transcript variant 3 (human).
T3 construct: HuProt array protein, full-length recombinant from yeast; also called CHEK2
T3 chain: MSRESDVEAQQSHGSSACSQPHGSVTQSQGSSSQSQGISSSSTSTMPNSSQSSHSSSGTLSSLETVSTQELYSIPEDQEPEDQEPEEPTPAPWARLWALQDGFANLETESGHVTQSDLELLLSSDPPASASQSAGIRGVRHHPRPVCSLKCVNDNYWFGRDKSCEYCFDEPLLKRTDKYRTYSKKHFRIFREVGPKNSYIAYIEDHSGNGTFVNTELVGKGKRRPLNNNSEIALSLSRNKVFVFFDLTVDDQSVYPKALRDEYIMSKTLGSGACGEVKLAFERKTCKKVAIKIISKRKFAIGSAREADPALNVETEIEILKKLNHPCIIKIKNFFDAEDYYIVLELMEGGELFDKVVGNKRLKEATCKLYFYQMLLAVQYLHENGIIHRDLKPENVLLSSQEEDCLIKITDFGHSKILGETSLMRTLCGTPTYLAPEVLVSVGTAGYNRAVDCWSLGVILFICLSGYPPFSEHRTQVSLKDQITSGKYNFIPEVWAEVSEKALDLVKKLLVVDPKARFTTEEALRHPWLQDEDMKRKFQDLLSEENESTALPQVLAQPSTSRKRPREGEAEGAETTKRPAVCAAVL

Assay [4] has as its target T4, aarF domain containing kinase 5 (human, UniProt Q3MIX3 1-580).
T4 construct: HuProt array protein, full-length recombinant from yeast; also called ADCK5

Assay [5] addresses aldo-keto reductase family 1 member B, transcript variant 1 (human, UniProt P15121 2-316).
Assay [6] concerns the target T5, S100 calcium binding protein B (human, UniProt P04271 2-92).
T5 construct: HuProt array protein, full-length recombinant from yeast; also called S100B
T5 sequence: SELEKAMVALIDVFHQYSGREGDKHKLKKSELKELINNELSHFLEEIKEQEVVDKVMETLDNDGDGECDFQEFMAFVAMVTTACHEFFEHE

The target of assay [7] is T6, dynein axonemal assembly factor 3, transcript variant 3 (human, UniProt Q8N9W5 1-541).
T6 construct: HuProt array protein, full-length recombinant from yeast; also called DNAAF3
T6 sequence: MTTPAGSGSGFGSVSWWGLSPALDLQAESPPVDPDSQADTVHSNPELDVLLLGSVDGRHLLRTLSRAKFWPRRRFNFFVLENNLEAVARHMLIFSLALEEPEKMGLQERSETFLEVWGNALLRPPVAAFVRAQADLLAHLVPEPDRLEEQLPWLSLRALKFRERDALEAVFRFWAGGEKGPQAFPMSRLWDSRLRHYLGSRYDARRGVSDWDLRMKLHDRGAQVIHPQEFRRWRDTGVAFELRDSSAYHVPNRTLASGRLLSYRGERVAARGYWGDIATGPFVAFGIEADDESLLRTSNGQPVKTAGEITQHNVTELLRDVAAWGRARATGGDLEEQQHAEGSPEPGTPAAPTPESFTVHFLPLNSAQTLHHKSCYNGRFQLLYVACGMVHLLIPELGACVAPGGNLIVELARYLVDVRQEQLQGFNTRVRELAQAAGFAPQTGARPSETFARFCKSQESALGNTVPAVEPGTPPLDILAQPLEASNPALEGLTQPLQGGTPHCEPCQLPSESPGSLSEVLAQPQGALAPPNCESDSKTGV

Assay [8] deals with T7, CDP-diacylglycerol synthase 1 (human, UniProt Q92903 1-461).
T7 construct: HuProt array protein, full-length recombinant from yeast; also called CDS1
T7 sequence: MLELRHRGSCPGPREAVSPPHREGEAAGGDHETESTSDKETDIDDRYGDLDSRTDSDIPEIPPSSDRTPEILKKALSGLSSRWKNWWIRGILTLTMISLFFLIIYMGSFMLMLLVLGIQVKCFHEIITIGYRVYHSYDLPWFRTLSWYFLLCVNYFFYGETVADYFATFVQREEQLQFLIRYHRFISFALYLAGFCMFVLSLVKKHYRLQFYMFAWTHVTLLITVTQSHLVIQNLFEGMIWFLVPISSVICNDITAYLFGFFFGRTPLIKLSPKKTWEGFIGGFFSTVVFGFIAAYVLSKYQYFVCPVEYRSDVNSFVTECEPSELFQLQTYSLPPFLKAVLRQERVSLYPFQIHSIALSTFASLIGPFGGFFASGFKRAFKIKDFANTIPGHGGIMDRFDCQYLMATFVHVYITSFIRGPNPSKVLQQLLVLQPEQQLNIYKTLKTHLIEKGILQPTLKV

T1 sequence (P12004 whole entry, change not shown): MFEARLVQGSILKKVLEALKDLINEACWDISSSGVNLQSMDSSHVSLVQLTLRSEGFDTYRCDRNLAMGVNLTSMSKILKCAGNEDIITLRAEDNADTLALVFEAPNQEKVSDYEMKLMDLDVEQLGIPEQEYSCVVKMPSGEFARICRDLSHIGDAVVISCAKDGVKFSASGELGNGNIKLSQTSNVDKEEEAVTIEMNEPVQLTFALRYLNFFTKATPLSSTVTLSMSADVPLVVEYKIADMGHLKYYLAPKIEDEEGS
T4 sequence (Q3MIX3 other isoform, or with tags, fused parts or gaps limits assumed): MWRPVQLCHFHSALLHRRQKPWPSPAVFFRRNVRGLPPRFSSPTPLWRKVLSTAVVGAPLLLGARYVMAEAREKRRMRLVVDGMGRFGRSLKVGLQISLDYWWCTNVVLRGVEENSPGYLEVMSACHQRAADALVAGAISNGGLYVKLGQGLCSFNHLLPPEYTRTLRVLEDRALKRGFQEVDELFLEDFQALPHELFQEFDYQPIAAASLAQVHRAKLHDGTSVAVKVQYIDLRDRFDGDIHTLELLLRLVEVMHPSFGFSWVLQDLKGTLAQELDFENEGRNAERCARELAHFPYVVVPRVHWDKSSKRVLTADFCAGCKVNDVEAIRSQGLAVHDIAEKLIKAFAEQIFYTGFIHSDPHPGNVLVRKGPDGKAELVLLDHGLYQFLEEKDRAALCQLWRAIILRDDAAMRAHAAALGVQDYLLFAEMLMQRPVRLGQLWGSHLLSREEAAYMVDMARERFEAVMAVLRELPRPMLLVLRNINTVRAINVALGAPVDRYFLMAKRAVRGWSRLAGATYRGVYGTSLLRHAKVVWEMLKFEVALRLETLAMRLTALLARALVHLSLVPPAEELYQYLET

B1: TKIC1007 (antibody, V domains shown)
VH: GVDLVESGGGLVKPGGSLRLSCAASGFSFSRYNINWVRQAPGKGLEWVSSISSTSNYIYYADSVKGRFTISRDNAKNSLYLQMNSLRAEDTAVYYCARAMGGYTYYLDDWGQGTLVTVSS
VL: QSALTQPASVSGSPGQSITISCTGTSSDVGLYNFVSWYQQHPGKAPKLMIFDVNNRPSGVSNRFSGSKSDNTASLTISGLQAEDEADYYCSSYSRTTTLVFGGGTKVTVLG
notes: detected with anti-human IgG Fc
As to B1, in assay [1], the binding result is given as “binds”.

B2: TKIC1019 (antibody, V domains shown)
VH: QLQLQESGPGLVKPSETLSLTCTVSDVSIISSFYYWGWIRQPPGKGLEWIGSVYYSGSTSYNPSLKSRVTISADTSKAHFSLNLRSVTAADTAVYYCVSRGPLGGAAAGPDYWGQGALVIVSS
VL: VSSELTQDPAVSVALGQTVRITCQGDSLRSYYATWYQQKPGQAPLLVIFDKDKRPSGIPDRFSGSSSGNTASLTITGAQPEDEAVYYCNSRDSSAHDHLLFGGGTTLTVLG
notes: as for B1
In the case of B2, the binding result in assay [2] was “binds”.

B3: TKIC1013 (antibody, V domains shown)
VH: EVQLVESGGGLVQPGGSLRLSCAASGFTFNNYWMHWVRQAPGKGLVWVSRISSDGSTTASADSVKGRFTISRDNAKNTLFLQMNSLRAEDTAVYYCAREGAPDDYGDSGTAFDIWGQGTTVTVSS
VL: DIQLTQSPSFLSASVGDRVTITCRASQDISSFLAWYQQKPGKAPDLLIYAASTLQSGVPSRFSGSGSGTEFTLTISSLQPEDFAAYYCQHLTSFPYTFGQGTKLEIKR
notes: as for B1
On to B3, for which the binding result in assay [3] was “binds”.

B4: TKIC1002 (antibody, V domains shown)
VH: PVQLQESGPGLVKPSETLSLTCTVSGGSISSYYWSWIRQPPGKGLEWIGYLFYSGSTNYNPSLKSRVTISVDTSKNQFSLKLGSVTAADTAVYYCARHRIFGLDVWGQGTTVTVSS
VL: EIVLTQSPGTLSLSLGERATLSCRASQSVSGSHLAWYQQKPGQAPRLLIYDASSRATGIPDRFSGSGSGTEFTLTISRLEPEDFAVYYCQQYGSSPLWFGQGTKVEIK
notes: as for B1
As for B4, the binding result in assay [4] is reported as “binds”.

B5: TKIC1006 (antibody, V domains shown)
VH: QVQLVQSGAEVKKPGSSVKVSCKTSGGTFSSYTISWVRQAPGQGPEWMGRIIPILNITNYAQKFQGRVTITADKSTSTTYMEMGSLRSEDTAVYFCARSFYGSGLQWGQGTLVTVSS
VL: EIVLTQSPGTLSLSPGERATLSCRASQSVSSSYLVWYQQKAGQAPRLLIYGASSRATGISDRFSGSGSGTDFTLTISRLEPEDFAVYYCQHFRSSPPTYTFGQGTKLEIKR
notes: as for B1
B5: in assay [5], the binding result is given as “binds”.

B6: TKIC1012 (antibody, V domains shown)
VH: VVQLVESGGGLVQPGGSLRLSCAASGFSFSTYWMSWVRQAPGKGLEWVANIKQDGSEKHYVDSVKGRFTISRDNAKNSLYLQMNSLRAEDTAMYYCARRAYSFDYWGQGTLVTVSS
VL: DIQMTQSPSTLSASVGDKVTITCRASQSVGSWLAWYQQKPGKAPKLLISVASSLESGVPSRFSGSGSGTEFTLTVSSLQPDDFATYYCQQYNSYSWTFGQGTKVELKR
notes: as for B1
For the molecule B6, the binding result in assay [6] is reported as “binds”.

B7: THNS1014 (antibody, V domains shown)
VH: HVQLLQSGPGLVKPSQTLSLTCAISGDSVSSTSGAWNWIRQSPSRGLEWLGRTYYRSQWMNDYAESVRSRITINPDTSKNQFSLQLKSVTPEDTAVYYCTRGWAFTSSDWGQGTQVTVSS
VL: EIVLTQSPGTLSLSPGERATLSCRASQSFDGKSLAWYQQKPGQTPRLLVYGASSRATGIPDRFGGSGSGTDFTLTISRLESEDFAVYFCQQYAYVPITFGQGTRLERKR
notes: as for B1
Turning to B7, the binding result in assay [7] and in assay [8] was “binds” in each case.
